Series [1] has as its target feruloyl esterase from Dorea formicigenerans (DfFAE) (Dorea formicigenerans). Kind of series: SEC; Superdex 200 Increase 10/300 GL; elution volume 12.9 ml; mass markers conalbumin 75 kDa and aldolase 158 kDa; apparent MW about 117 kDa. For orientation: In gel filtration, larger molecules generally elute earlier.
Substrate in series [2]: CCCC(=O)Oc1ccc([N+](=O)[O-])cc1
As to the kind of experiment: purified protein. In kind it is biochemical, Dorea formicigenerans. The conditions noted are these: 10 mM Tris-HCl pH 8.4, 2.5% Triton X-100, 40 °C.

Substrate in series [3]: CC(=O)Oc1ccc([N+](=O)[O-])cc1
Kind of series: purified protein. In kind it is biochemical, Dorea formicigenerans. Particulars: 10 mM Tris-HCl pH 8.4, 2.5% Triton X-100, 40 °C.

Substrate in series [4]: CCCCCCCC(=O)Oc1ccc([N+](=O)[O-])cc1
Kind of series: purified protein. In kind it is biochemical, Dorea formicigenerans. The conditions noted are these: 10 mM Tris-HCl pH 8.4, 2.5% Triton X-100, 40 °C.

The stoichiometry N is a count of units in the complex or per binding partner. Usually Km stands for the concentration of substrate that gives half-maximal velocity. A word on the kcat: it is the number of substrate molecules converted per active site and unit of time at saturation. What is called kcat/Km is the turnover number divided by the Michaelis constant.

“feruloyl esterase from Dorea formicigenerans (DfFAE) (enzyme)”: the stoichiometry N in series [1] is 3.

B1: DfFAE (Dorea formicigenerans; N156A) (protein)
chain: MNQKKECMDVHVNGLKFHVQTFGSGVPIIMIMGLGAPGDKWKHNYELLSKWFWCIVPDNRGAGLSDKPEAESYTTEQMADDIIGIMDALDIKKAHVMGVSMGGAIAQQVALKVPDRVLSLILTSTFASVSPAFKKALNLICELKEDTDPAVLKQLALWMTYGQYTQIHHPEKIEKSIEEDAAYPYPMPVYAYKAQCGACLSHNTAGRLHELKMPVLIAAGAKDLFMNIEKTMELVHGIPQAEFYLAPEGGHVHQWEYPEPYDSVVVGFLMKHTN
notes: E. coli T7; trimeric by SEC (117 kDa)
On to B1, for which, in “purified protein [2]”, the Km is reported as 0.3343 ± 0.04369 mM, the kcat is 2.85 ± 0.0997 s⁻¹ and the kcat/Km came to 8520 ± 166 M⁻¹ s⁻¹. In addition, in the series “purified protein [3]”, the Km came to 0.6447 ± 0.04059 mM, the kcat is 14.8 ± 0.333 s⁻¹ and the kcat/Km is 22940 ± 85.5 M⁻¹ s⁻¹.

B2: DfFAE (Dorea formicigenerans; W255A) (protein)
chain: MNQKKECMDVHVNGLKFHVQTFGSGVPIIMIMGLGAPGDKWKHNYELLSKWFWCIVPDNRGAGLSDKPEAESYTTEQMADDIIGIMDALDIKKAHVMGVSMGGAIAQQVALKVPDRVLSLILTSTFASVSPAFKKALNLICELKEDTDPAVLKQLNLWMTYGQYTQIHHPEKIEKSIEEDAAYPYPMPVYAYKAQCGACLSHNTAGRLHELKMPVLIAAGAKDLFMNIEKTMELVHGIPQAEFYLAPEGGHVHQAEYPEPYDSVVVGFLMKHTN
notes: as for B1
With B2, in “purified protein [4]”, the Km is given as 0.1782 ± 0.01366 mM, the kcat was 2.87 ± 0.0543 s⁻¹ and the kcat/Km was determined as 16100 ± 95.6 M⁻¹ s⁻¹. In the series “purified protein [3]”, the Km came out at 0.8097 ± 0.1824 mM, the kcat is 12.1 ± 0.891 s⁻¹ and the kcat/Km amounted to 14900 ± 299 M⁻¹ s⁻¹.

B3: DfFAE (Dorea formicigenerans; P149A) (protein)
chain: MNQKKECMDVHVNGLKFHVQTFGSGVPIIMIMGLGAPGDKWKHNYELLSKWFWCIVPDNRGAGLSDKPEAESYTTEQMADDIIGIMDALDIKKAHVMGVSMGGAIAQQVALKVPDRVLSLILTSTFASVSPAFKKALNLICELKEDTDAAVLKQLNLWMTYGQYTQIHHPEKIEKSIEEDAAYPYPMPVYAYKAQCGACLSHNTAGRLHELKMPVLIAAGAKDLFMNIEKTMELVHGIPQAEFYLAPEGGHVHQWEYPEPYDSVVVGFLMKHTN
notes: as for B1
As to B3, in the series “purified protein [4]”, the Km was determined as 0.4288 ± 0.03531 mM, the kcat came out at 1.08 ± 0.0243 s⁻¹ and the kcat/Km amounted to 2510 ± 105 M⁻¹ s⁻¹. In the series “purified protein [3]”, the Km turned out to be 0.8037 ± 0.1078 mM, the kcat was determined as 17.4 ± 0.809 s⁻¹ and the kcat/Km turned out to be 21690 ± 181 M⁻¹ s⁻¹.

B4: DfFAE (Dorea formicigenerans; P186A) (protein)
chain: MNQKKECMDVHVNGLKFHVQTFGSGVPIIMIMGLGAPGDKWKHNYELLSKWFWCIVPDNRGAGLSDKPEAESYTTEQMADDIIGIMDALDIKKAHVMGVSMGGAIAQQVALKVPDRVLSLILTSTFASVSPAFKKALNLICELKEDTDPAVLKQLNLWMTYGQYTQIHHPEKIEKSIEEDAAYPYAMPVYAYKAQCGACLSHNTAGRLHELKMPVLIAAGAKDLFMNIEKTMELVHGIPQAEFYLAPEGGHVHQWEYPEPYDSVVVGFLMKHTN
notes: as for B1
As to B4, in the series “purified protein [3]”, the Km is 0.824 ± 0.2421 mM, the kcat turned out to be 11.3 ± 1.21 s⁻¹ and the kcat/Km turned out to be 13700 ± 400 M⁻¹ s⁻¹.

B5: DfFAE (Dorea formicigenerans; V252A) (protein)
chain: MNQKKECMDVHVNGLKFHVQTFGSGVPIIMIMGLGAPGDKWKHNYELLSKWFWCIVPDNRGAGLSDKPEAESYTTEQMADDIIGIMDALDIKKAHVMGVSMGGAIAQQVALKVPDRVLSLILTSTFASVSPAFKKALNLICELKEDTDPAVLKQLNLWMTYGQYTQIHHPEKIEKSIEEDAAYPYPMPVYAYKAQCGACLSHNTAGRLHELKMPVLIAAGAKDLFMNIEKTMELVHGIPQAEFYLAPEGGHAHQWEYPEPYDSVVVGFLMKHTN
notes: as for B1
With B5, in the series “purified protein [2]”, the Km is on record as 0.08361 ± 0.00865 mM, the kcat is 1.07 ± 0.0216 s⁻¹ and the kcat/Km was determined as 12830 ± 124 M⁻¹ s⁻¹. Further, in the series “purified protein [4]”, the Km turned out to be 0.09987 ± 0.01876 mM, the kcat was 0.52 ± 0.018 s⁻¹ and the kcat/Km was determined as 5200 ± 222 M⁻¹ s⁻¹. In “purified protein [3]”, the Km came to 0.2889 ± 0.0538 mM, the kcat amounted to 12.8 ± 0.51 s⁻¹ and the kcat/Km is 44130 ± 226 M⁻¹ s⁻¹.

B6: DfFAE (Dorea formicigenerans) (protein)
chain: MNQKKECMDVHVNGLKFHVQTFGSGVPIIMIMGLGAPGDKWKHNYELLSKWFWCIVPDNRGAGLSDKPEAESYTTEQMADDIIGIMDALDIKKAHVMGVSMGGAIAQQVALKVPDRVLSLILTSTFASVSPAFKKALNLICELKEDTDPAVLKQLNLWMTYGQYTQIHHPEKIEKSIEEDAAYPYPMPVYAYKAQCGACLSHNTAGRLHELKMPVLIAAGAKDLFMNIEKTMELVHGIPQAEFYLAPEGGHVHQWEYPEPYDSVVVGFLMKHTN
notes: as for B1
As to B6, in “purified protein [2]”, the Km worked out at 0.3573 ± 0.06862 mM, the kcat was determined as 0.798 ± 0.0436 s⁻¹ and the kcat/Km worked out at 2230 ± 247 M⁻¹ s⁻¹. Also, in the series “purified protein [4]”, the Km was found to be 0.5262 ± 0.07357 mM, the kcat stood at 0.186 ± 0.00865 s⁻¹ and the kcat/Km is 354 ± 186 M⁻¹ s⁻¹. Also, in “purified protein [3]”, the Km is recorded as 0.572 ± 0.05657 mM, the kcat worked out at 4.42 ± 0.165 s⁻¹ and the kcat/Km turned out to be 7730 ± 136 M⁻¹ s⁻¹.

The record behind these values is paper PMC9251316, “Engineering the Active Site Pocket to Enhance the Catalytic Efficiency of a Novel Feruloyl Esterase Derived From Human Intestinal Bacteria Dorea formicigenerans” (Frontiers in Bioengineering and Biotechnology, 2022).
